Data as given in ChEMBL document CHEMBL5143569.

Key:
[1] = substrate: CC1(CN)CCN(c2cnc(Sc3cccc(Cl)c3Cl)c(N)n2)CC1; details: Homo sapiens; filed as negative allosteric modulator; dose 0.032 µM
Description: Non-competitive inhibition of wild-type human SHP2 (1 to 535 residues) using DiFMUP as substrate assessed as Km at 0.032 uM measured by Lineweaver-Burk plot analysis

[2] = substrate: CC1(CN)CCN(c2cnc(Sc3cccc(Cl)c3Cl)c(N)n2)CC1; details: Homo sapiens; filed as negative allosteric modulator; dose 0.2 µM
[3] = substrate: CC1(CN)CCN(c2cnc(Sc3cccc(Cl)c3Cl)c(N)n2)CC1; details: Homo sapiens; filed as negative allosteric modulator; dose 0.08 µM
Description: Non-competitive inhibition of wild-type human SHP2 (1 to 535 residues) using DiFMUP as substrate assessed as Km at 0.08 uM measured by Lineweaver-Burk plot analysis

B1: Tyrosine-protein phosphatase non-receptor type 11 (Homo sapiens), Q06124 (protein)
chain: MTSRRWFHPNITGVEAENLLLTRGVDGSFLARPSKSNPGDFTLSVRRNGAVTHIKIQNTGDYYDLYGGEKFATLAELVQYYMEHHGQLKEKNGDVIELKYPLNCADPTSERWFHGHLSGKEAEKLLTEKGKHGSFLVRESQSHPGDFVLSVRTGDDKGESNDGKSKVTHVMIRCQELKYDVGGGERFDSLTDLVEHYKKNPMVETLGTVLQLKQPLNTTRINAAEIESRVRELSKLAETTDKVKQGFWEEFETLQQQECKLLYSRKEGQRQENKNKNRYKNILPFDHTRVVLHDGDPNEPVSDYINANIIMPEFETKCNNSKPKKSYIATQGCLQNTVNDFWRMVFQENSRVIVMTTKEVERGKSKCVKYWPDEYALKEYGVMRVRNVKESAAHDYTLRELKLSKVGQGNTERTVWQYHFRTWPDHGVPSDPGGVLDFLEEVHHKQESIMDAGPVVVHCSAGIGRTGTFIVIDILIDIIREKGVDCDIDVPKTIQMVRSQRSGMVQTEAQYRFIYMAVQHYIETLQRRIEEEQKSKRKGHEYTNIKYSLADQTSGDQSPLPPCTPTPPCAEMREDSARVYENVGLMQQQKSFR
**Q.** B1 was tested. Which Km [1] did it give?
**A.** 95.4 µM

**Q.** And the Km [2]?
**A.** 142 µM

**Q.** What about the Km [3] of the same protein?
**A.** 103 µM
